Tests used:
[1] = target: T1, monomeric human Fc-fused SARS-CoV-2_RBD-SD1 (SARS-CoV-2, UniProt P0DTC2 319-591)
[2] = target: T1, monomeric human Fc-fused …; assay: ELISA with periplasmic extract, RBD captured by VHH72-Fc

B1: VHH3.89 (VHH)
VHH: QVQLQESGGGLVQPGGSLRLSCAASGFTLDYYAIGWFREVPGKEREGLSRIDSSDGSTYYADSVKGRFTISRDNTKNIVYLQMNNLKPEDTAVYYCATDPIIQGRNWYWTGWGQGTQVTVSS
In the case of B1, the Kd [1] is reported as 292 pM.

B2: VHH3.94 (VHH)
VHH: QVQLQESGGGLVQPGGSLRLSCAASGKAVSISDMGWYRQPPGKQRELVATITKSGSTNYANSAQGRFTISRDNAKSAVYLEMNSLKPEDTAVYYCNAWLPYGMGPDYYGMELWGEGTQVTVSS
B2: binds [2].

B3: VHH3.183 (VHH)
VHH: QVQLQESGGGLVQPGGSLRLSCAASGLDYYAIGWFRQAPGKEREGLSRIESSDGSTYYADSVKGRFTISRDNTKNTVYLQMNSLKPEDTAVYYCATDPIIQGSSWYWTSWGQGTQVTVSS
B3 gave a koff [1] of 0.0014 s⁻¹.
